From article PMC10906223 (JCI Insight, 2024)
Several values for one entry are separate records, joined by “and”; a condition that tells them apart may be missing. Equal values may be shown once.

What was measured:
[1] = tested on: human dispersed islet cells; assay: Immunofluorescence: EphA4 intensity in glucagon+ human dispersed islet cells; type: cell-based; conditions: human cells; individual values; Figure 3G; listed as E;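 further: ImageJ intensity within ROI drawn around each glucagon+ cell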
Protocol: (§1) Coverslips were treated with WCDD301, preclustered Ephrin-A5 Fc, or preclustered Fc in the following sequential order: KRBH (11 mM glucose, 30 minutes), KRBH (1 mM glucose, 60 minutes), KRBH (1 mM glucose, 30 minutes), and KRBH (11 mM glucose, 60 minutes). After treatment, coverslips were washed once in PBS, fixed in 2% paraformaldehyde in PBS (30 minutes), and again washed in PBS. […] Following wash in PBS, coverslips were incubated in a mixture of Alexa Fluor 555 Phalloidin (Cell Signaling Technology, catalog 8953) and secondary antibodies (goat anti-rabbit Alexa Fluor 488, catalog A-21094, 1:1,000, Molecular Probes; and goat anti-mouse Alexa Fluor 633, catalog A21052, 1:1,000, Life Technologies) for 1 hour at RT. Both primary and secondary antibodies were diluted in blocking buffer containing 0.05% Tween 20. Coverslips were washed using PBS and counterstained by using DAPI (1:1,000) for 10 minutes. Following 2 washes in PBS, coverslips were mounted on glass slides using ProLong Glass Antifade Mountant (Invitrogen, catalog P36980). Images were captured using the Zeiss LSM880 microscope with a Plan-Apochromat 63× 1.4 NA objective lens by setting dual-band dichroic/filter for 405, 488, 561, and 633 nm laser excitation. For each slide, 25–30 fields of view were scanned, and in each field of view, 3–5 cells were imaged. […] Values of intensity were compared among groups using 1-way ANOVA, α = 0.05.

[2] = tested on: mouse dispersed islet cells; assay: Immunofluorescence: EphA4 intensity in glucagon+ mouse dispersed islet cells; type: cell-based; conditions: mouse cells; individual values; Figure 3H; listed as E;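 further: ImageJ intensity within ROI drawn around each glucagon+ cell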
Protocol: as §1

[3] = tested on: isolated islets of donors with T1D; assay: Glucagon secretion from isolated islets of donors with T1D; type: cell-based, human; conditions: isolated islets, T1D donors, one value per donor, Figure 2G, listed as E
Protocol: (§2) The Integrated Islet Distribution Program provided us human donor islets with their characteristics (Supplemental Table 6). Islets were centrifuged at 500g for 3 minutes, resuspended in CMRL 1066 medium (Gibco, catalog 1150-037) containing 11 mM glucose, and rested in an incubator overnight.
(§3) For the hormone secretion assay, islets or dispersed islet cells were adapted in KRBH buffer containing 11 mM glucose for 1 hour. Then, after 2 washes in HBSS containing 11 mM glucose, islets or cells were treated in the following sequential order in the presence or absence of WCDD301: incubation in KRBH (1 mM glucose, 30 minutes) followed by medium collection, incubation in KRBH (11 mM glucose, 30 minutes) followed by medium collection.

[4] = tested on: mouse dispersed islet cells; assay: Immunofluorescence: F-actin intensity in glucagon+ mouse dispersed islet cells; type: cell-based; conditions: mouse cells; individual values; Figure 3F; listed as E;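 further: ImageJ intensity within ROI drawn around each glucagon+ cell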
Protocol: as §1

[5] = tested on: human donor dispersed islet cells; assay: Somatostatin secretion from non-diabetic human donor dispersed islet cells; type: cell-based; conditions: Ephrin-A5
Protocol: (§4) Pancreata of nondiabetic C57BL/6J mice were digested using collagenase P (Roche Diagnostics, catalog 11213873001), and islets were manually picked up using a stereomicroscope (ZEISS Stemi 305). […] Isolated mouse islets or provided human islets were dispersed as described ([28]). Briefly, 100–120 islets were washed 2 times using modified HBSS, then dispersed in 600 μL Accutase (Innovative Cell Technologies, catalog AT-104) by gently pipetting up and down for 7 minutes at 37°C. […] Following refreshing of KRBH, cells were dispensed in 8 microfuge tubes (2,000 cells/tube) and treated with WCDD301, preclustered Ephrin-A5 Fc, or preclustered Fc in the presence or absence of the competitive inhibitor of EphA4 receptor, rhyncophylline ([60]) (MilliporeSigma, catalog SML2345). In the presence or absence of these effectors, secretion assay was performed sequentially as shown in Supplemental Table 5. […] Preclustering of Ephrin-A5 Fc was done by mixing Ephrin-A5 Fc or Fc alone (BioLegend, catalog 790102) with anti-Fc antibody (Invitrogen, catalog A16086) (1:10 molar ratio) 20 minutes before treatment ([62]). […] Shedding of cleaved EphA4 was measured from the cell culture medium. Experiments were performed by dispersion of 200 islets, and EphA4 levels in media were measured by EphA4 ELISA (ABclonal, catalog RK06572).
as §2, §3

[6] = tested on: murine dispersed islet cells; assay: Insulin secretion from murine dispersed islet cells; type: cell-based, mouse; conditions: Ephrin-A5 Fc (E), one value per mouse, Figure 1G, listed as E
Protocol: as §4

[7] = tested on: dispersed islet cells of donors with T1D; assay: Insulin secretion from dispersed islet cells of donors with T1D; type: cell-based, human; conditions: dispersed islet cells, T1D donors, one value per donor, Figure 2J;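 further: insulin concentration in collected medium by Lumit immunoassay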
Protocol: as §4, §2, §3

[8] = tested on: dispersed islet cells of donors with T1D; assay: Glucagon secretion from dispersed islet cells of donors with T1D; type: cell-based, human; conditions: dispersed islet cells, T1D donors, one value per donor, Figure 2H, listed as E
Protocol: as §4, §2, §3

[9] = tested on: isolated islets of donors with T1D; assay: Insulin secretion from isolated islets of donors with T1D; type: cell-based, human; conditions: isolated islets, T1D donors, one value per donor, Figure 2I, listed as E;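 further: insulin concentration in collected medium by Lumit immunoassay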
Protocol: as §2, §3

[10] = tested on: human dispersed islet cells; assay: Immunofluorescence: F-actin intensity in glucagon+ human dispersed islet cells; type: cell-based; conditions: human cells; individual values; Figure 3E; listed as E;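 further: ImageJ intensity within ROI drawn around each glucagon+ cell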
Protocol: as §1

[11] = tested on: murine dispersed islet cells; assay: Glucagon secretion from murine dispersed islet cells; type: cell-based, mouse; conditions: for Secretion of glucagon: E + Rhy (2.5 µM), Figure 1H; for Secretion of glucagon / Relative secretion of glucagon: listed as E; for Relative secretion of glucagon: Ephrin-A5 Fc (E), one value per mouse, Figure 1F
Protocol: as §4

B1: Ephrin-A5 Fc: recombinant mouse Ephrin-A5 Fc; natural ligand of EphA4 receptors (protein)
chain: QDPGSKVVADRYAVYWNSSNPRFQRGDYHIDVCINDYLDVFCPHYEDSVPEDKTERYVLYMVNFDGYSACDHTSKGFKRWECNRPHSPNGPLKFSEKFQLFTPFSLGFEFRPGREYFYISSAIPDNGRRSCLKLKVFVRPTNSCMKTIGVHDRVFDVNDKVENSLEPADDTVHESAEPSRGEN
modifications: left off: Fc, end not stated, kept
notes: recombinant mouse Ephrin-A5 Fc; natural ligand of EphA4 receptors
EphA4 intensity [1]: 45.7 and 17.5 and 5.4 and 39.9 and 12.3 and 5.9 and 20.4 and 7.4 and 4.4
EphA4 intensity [2]: 18.2 and 16.2 and 19.0 and 16.0 and 17.1 and 20.0 and 17.0 and 15.6 and 21.0 and 18.0 and 33.1 and 50.6 and 24.4 and 25.7
Secretion of glucagon ([3]; 1 mM glucose): 40.65 and 55.72
Secretion of glucagon ([3]; 11 mM glucose): 37.25 and 40.79
F-actin intensity [4]: 8.2 and 11.3 and 9.4 and 8.4 and 9.8 and 8.6 and 5.2 and 8.9 and 7.7
Somatostatin secretion (Supplemental Figure 4D; quantity not given) [5]: 1908.4 and 2981.9 and 2200.0
Relative secretion of insulin ([6]; Glucose (1 mM)): 0.75 and 0.2 and 0.32 and 0.45 and 0.69
Relative secretion of insulin ([6]; Glucose (11 mM)): 1.02 and 1 and 0.85 and 0.8 and 0.96
Secretion of insulin ([7]; 1 mM glucose): 0.06
Secretion of insulin ([7]; 11 mM glucose, listed as E): 0.10 and 0.05
Secretion of glucagon ([8]; 1 mM glucose): 14.105 and 25.56
Secretion of glucagon ([8]; 11 mM glucose): 38.15 and 32.58
Secretion of insulin ([9]; 1 mM glucose): 0.075 and 0.07
Secretion of insulin ([9]; 11 mM glucose): 0.11 and 0.05
F-actin intensity [10]: 9.8 and 7.6 and 4.7 and 8.3 and 7.5 and 5.1 and 5.9 and 5.2
Effect on arginine-stimulated glucagon secretion ([11]; 1 mM and 11 mM glucose, Arg 25 mM, 301 3 µM, E 4 µg/mL, Supplemental Figure 2): its effect was suppressed
Secretion of glucagon ([11]; Glucose (1 mM)): 0.8 and 0.85 and 0.95 and 1.05 and 1
Secretion of glucagon ([11]; Glucose (11 mM)): 1.1 and 1.07 and 1.2 and 1.05 and 1.15
Relative secretion of glucagon ([11]; Glucose (1 mM)): 0.85 and 0.95 and 1.05 and 0.7 and 0.8
Relative secretion of glucagon ([11]; Glucose (11 mM)): 1.01 and 0.8 and 0.9 and 0.85 and 0.94
